Data: US20210009686A1

Legend:
[1] = molecular target: claudin 18.1 (CLDN18.1) (human) (UniProt P56856); assay: in-cell ELISA on HEK293-CLDN18.1 cells
[2] = molecular target: claudin 18.2 (CLDN18.2) (human); assay: in-cell ELISA on HEK293-CLDN18.2 cells

claudin 18.1 (CLDN18.1) (human), sequence (P56856 whole entry): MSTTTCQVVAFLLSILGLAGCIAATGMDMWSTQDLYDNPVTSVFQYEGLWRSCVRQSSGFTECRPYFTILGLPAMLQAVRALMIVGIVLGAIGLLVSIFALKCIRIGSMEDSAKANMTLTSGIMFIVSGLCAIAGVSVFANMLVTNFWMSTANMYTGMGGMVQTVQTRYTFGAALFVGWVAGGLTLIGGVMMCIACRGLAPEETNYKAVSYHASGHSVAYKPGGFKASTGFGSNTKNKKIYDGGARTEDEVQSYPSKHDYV

OD450/µg IgG [1]: 1.54 OD450/µg IgG
OD450/µg IgG [2]: 3.23 OD450/µg IgG
Substance: mouse IgG (control) (antibody)
